Our source for the Kd values is patent publication US20090292003A1.

Usually Kd stands for a measure of binding affinity in units of concentration. A high value points to weaker binding.

This assay concerns the target short 17-residues peptide (cargo titrated against CADY-2). Kind of assay: steady state Trp fluorescence quenching, fixed CADY (0.1 uM) titrated with cargo peptide in PBS, quadratic fit.

B1: CADY-2 (Ac-…-Cya) (peptide)
peptide: GLWRALWRALWRSLWKLKWKV
HELM: PEPTIDE1{[ac].G.L.W.R.A.L.W.R.A.L.W.R.S.L.W.K.L.K.W.K.V.[SCCN[*:1]]}$$$$V2.0
SMILES: CC(=O)NCC(=O)N[C@@H](CC(C)C)C(=O)N[C@@H](Cc1c[nH]c2ccccc12)C(=O)N[C@@H](CCCNC(=N)N)C(=O)N[C@@H](C)C(=O)N[C@@H](CC(C)C)C(=O)N[C@@H](Cc1c[nH]c2ccccc12)C(=O)N[C@@H](CCCNC(=N)N)C(=O)N[C@@H](C)C(=O)N[C@@H](CC(C)C)C(=O)N[C@@H](Cc1c[nH]c2ccccc12)C(=O)N[C@@H](CCCNC(=N)N)C(=O)N[C@@H](CO)C(=O)N[C@@H](CC(C)C)C(=O)N[C@@H](Cc1c[nH]c2ccccc12)C(=O)N[C@@H](CCCCN)C(=O)N[C@@H](CC(C)C)C(=O)N[C@@H](CCCCN)C(=O)N[C@@H](Cc1c[nH]c2ccccc12)C(=O)N[C@@H](CCCCN)C(=O)N[C@H](C(=O)NCCS)C(C)C
B1 had a Kd of 19 nM.
